Results on two molecules are retold here after PMC5216073, “Architecture and mechanism of the late endosomal Rab7-like Ypt7 guanine nucleotide exchange factor complex Mon1–Ccz1” (Nature Communications, 2017).

The target of series [1] is CtYpt7 wild type (Chaetomium thermophilum Ypt7) (Chaetomium thermophilum). Description: cell-based or functional assay.
Series [2] concerns the molecule itself. Description: SEC; gel filtration of the full-length CtMC1 complex, co-expressed in E. coli and purified on a glutathione column by GST-CtMon1, tags cleaved.
The target of series [3] is T1, CtMon1, full length (Chaetomium thermophilum Mon1) (Chaetomium thermophilum, UniProt G0SGS3 1-665).
T1 construct: Mon1 of Chaetomium thermophilum, NCBI XP_006697030; C-terminal domain printed as aa 486-665; GST cleaved with PreScission protease; source: E. coli Rosetta (DE3), co-expressed with CtCcz1, purified (glutathione column, size exclusion chromatography); not shown: GST, N-terminal, cleaved
T1 sequence (looked up): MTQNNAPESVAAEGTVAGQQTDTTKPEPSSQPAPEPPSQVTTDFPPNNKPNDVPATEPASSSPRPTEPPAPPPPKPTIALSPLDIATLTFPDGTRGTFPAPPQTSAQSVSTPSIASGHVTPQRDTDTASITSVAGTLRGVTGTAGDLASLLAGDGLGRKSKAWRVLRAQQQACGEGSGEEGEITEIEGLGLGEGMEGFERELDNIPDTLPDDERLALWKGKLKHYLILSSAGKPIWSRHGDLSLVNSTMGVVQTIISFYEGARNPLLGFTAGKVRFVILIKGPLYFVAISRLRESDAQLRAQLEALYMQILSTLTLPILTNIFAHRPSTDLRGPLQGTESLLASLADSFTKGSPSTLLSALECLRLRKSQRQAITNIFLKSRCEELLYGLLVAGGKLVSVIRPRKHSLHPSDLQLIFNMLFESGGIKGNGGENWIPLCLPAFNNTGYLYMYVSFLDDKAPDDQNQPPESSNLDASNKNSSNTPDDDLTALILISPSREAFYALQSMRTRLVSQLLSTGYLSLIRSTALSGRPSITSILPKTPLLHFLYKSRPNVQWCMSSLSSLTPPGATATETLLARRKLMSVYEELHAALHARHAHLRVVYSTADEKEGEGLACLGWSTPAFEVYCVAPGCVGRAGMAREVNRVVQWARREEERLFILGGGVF
The description is as above. To be noted: both partners purified.

B1: full-length CtMC1 complex (CtMon1-CtCcz1) (complex, Chaetomium thermophilum)
chain 1: T1 sequence (looked up)
chain 2: MTTPVSPSPSGIIPAQLGFLAIYNPALGTTDETLEDQIVYYATASTLSQARRRHRRPRRRDRQRAQSVVKDSRPNAAGATGDSEAVAEDKDPVSKEERHERLRQIGLAQGMVEFAKSFSDGEPVDTIDTEKARVILVEVEEGWWILASIDLTRLPLPQIKTPTSSSAPPPAPNLNPLPPEPAYEYSSREVKPPSLLRADLLRAYDLFLLHHGSSLSSLLASQGRAQLVASLTRFWDHFLATWNVLLHGNPACDVFGGIKLAASGELGIGVGEEERGSGEREVLEGLVERVEGLVDVVVGRYGGPPSEKGPEEEQWLGLGGEVGEEDGAVFLGVGALDRKSLRGVVQWMEEVYVWGENAFGVGGSRAARRRRKRGAKESRVLKTGAGKKIPIGTGTGTEGKRGEAATPDMAGTPGSMDKLFSYLTLGYGTSWSLGLSGTSTPSDSDPGSVSKGMVESSESGKPRRDLSTGHFLLGLSECSEEELTSSQANPKAIFVELKPSYQHPSRKIPPEDPQPLGKVGPELPRDHTARLRPVIYVSQPFIYILLFSEITPSPSTWPTLAESLHAQLSPLQKPLLHSTSYRPERPVVETTSSSGTTTQHQIFDLVYDTETLTLQSTIPNIPDPFPYSATTPTGHSTGQQHHQQSIWTRVEALQTHAQILAILSSGRAIPTDPSSFTHLPWEEGERTCKTARGWWIVWTRVVEHSPPDAVSLHHARDDDDNDDDASCSVLGHLRSVSSSHAAGSTSSSSGSGFGLGAIPGLGGLGGWAADGATRLAQGIGIDTRRYVEGLLTSLGR
notes: Mon1 of Chaetomium thermophilum, NCBI XP_006697030; codon-optimized synthetic gene; Ccz1 of Chaetomium thermophilum, NCBI XP_006695440; The Mon1-Ccz1 heterodimer forms a dimer of heterodimers (two copies of each protein); the rows of m3 with itself mean the association of two heterodimers; also called CtMC1full; Mon1-Ccz1 complex; source: E. coli Rosetta (DE3), co-expressed, purified (glutathione …)
B1: the “kcat/KM of MC1-stimulated exchange of MANT-GDP for GTP on Ypt7 (fluorescence GEF assay, 0-2.0 μM CtMC1, 25 °C)” value in series [1] amounted to 21000 M⁻¹ s⁻¹. Besides, in series [2], the “stoichiometry N” value amounted to 2.

B2: CtCcz1, full length (Chaetomium thermophilum Ccz1) (natural protein, UniProt G0SD94 1-796, looked up)
chain: B1 chain 2
notes: Ccz1 of Chaetomium thermophilum, NCBI XP_006695440; C-terminus printed as residues 250-796; His6-SUMO cleaved with SUMO protease; source: E. coli Rosetta (DE3), co-expressed with CtMon1, purified (glutathione column, size exclusion chromatography); not shown: His6, N-terminal, cleaved; SUMO, N-terminal, cleaved
In the case of B2, the “stoichiometry N” value in series [3] is 1.
